# In publication PMC9940316 (2023):
# Target: human plasma IgG1 (human, UniProt P01857 = IgG part)
# Assay: SPR; pH 7
binder,measurement,value
FcγRIIa (receptor) QAAAPPKAVLKLEPPWINVLQEDSVTLTCQGARSPESDSIQWFHNGNLIPTHTQPSYRFKANNNDSGEYTCQTGQTSLSDPVHLTVLSEWLVLQTPHLEFQEGETIMLRCHSWKDKPLVKVTFFQNGKSQKFSHLDPTFSIPQANHSHSGDYHCTGNIGYTLFSSKPVTITVQVPSMGSSSPMGIIVAVVIATAVAAIVAAVVALIYCRKKRISANSTDPVKAAQFEPPGRQMIAIRKRQLEETNNDYETADGGYMTLNPRAPTDDDKNIYLTLPPNDHVNSNN,Kd,1300 nM
